Results reported in the supplement of paper PMC11316812.
± gives the standard deviation of the averaged measurements.

Key:
[1] = system: MCF7; test: percentage of EdU-negative (G0-arrested) nuclei per well, 72 h; higher = more G0 arrest; details: reference: sequence is the full UniProt precursor, the tested protein was the secreted form or ectodomain
[2] = system: hTERT-HMEC; test: as above; details: reference: sequence is the full UniProt precursor, the tested protein was the secreted form or ectodomain
[3] = protein concentration 0.0171429 µM
[4] = protein concentration 0.171429 µM
[5] = protein concentration 0.02075 µM
[6] = protein concentration 0.2075 µM
[7] = protein concentration 0.02175 µM
[8] = protein concentration 0.2175 µM
[9] = protein concentration 0.03125 µM
[10] = protein concentration 0.3125 µM
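Further: secreted proteins added to cultured cells, EdU pulse at the end, nuclei found by Hoechst imaging, EdU status from nuclear versus surrounding ring intensity ratio, PBS as neutral control.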

MTSHYVIAIFALMSSCLATAGPEPGALCELSPVSASHPVQALMESFTVLSGCASRGTTGLPQEVHVLNLRTAGQGPGQLQREVTLHLNPISSVHIHHKSVVFLLNSPHPLVWHLKTERLATGVSRLFLVSEGSVVQFSSANFSLTAETEERNFPHGNEHLLNWARKEYGAVTSFTELKIARNIYIKVGEDQVFPPKCNIGKNFLSLNYLAEYLQPKAAEGCVMSSQPQNEEVHIIELITPNSNPYSAFQVDITIDIRPSQEDLEVVKNLILILKCKKSVNWVIKSFDVKGSLKIIAPNSIGFGKESERSMTMTKSIRDDIPSTQGNLVKWALDNGYSPITSYTMAPVANRFHLRLENNAEEMGDEEVHTIPPELRILLDPGALPALQNPPIRGGEGQNGGLPFPFPDISRRVWNEEGEDGLPRPKDPVIPSIQLFPGLREPEEVQGSVDIALSVKCDNEKMIVAVEKDSFQASGYSGMDVTLLDPTCKAKMNGTHFVLESPLNGCGTRPRWSALDGVVYYNSIVIQVPALGDSSGWPDGYEDLESGDNGFPGDMDEGDASLFTRPEIVVFNCSLQQVRNPSSFQEQPHGNITFNMELYNTDLFLVPSQGVFSVPENGHVYVEVSVTKAEQELGFAIQTCFISPYSNPDRMSHYTIIENICPKDESVKFYSPKRVHFPIPQADMDKKRFSFVFKPVFNTSLLFLQCELTLCTKMEKHPQKLPKCVPPDEACTSLDASIIWAMMQNKKTFTKPLAVIHHEAESKEKGPSMKEPNPISPPIFHGLDTLTVMGIAFAAFVIGALLTGALWYIYSHTGETAGRQQVPTSPPASENSSAAHSIGSTQSTPCSSSSTA
percentage of EdU-negative [1, 3]: 24.6 ± 1.9%
percentage of EdU-negative [1, 4]: 23.7 ± 2.4%
percentage of EdU-negative [2, 3]: 4.94 ± 0.63%
percentage of EdU-negative [2, 4]: 5.484 ± 0.021%

MTSKPHSDWIPYSVLDDEGRNLRQQKLDRQRALLEQKQKKKRQEPLMVQANADGRPRSRRARQSEEQAPLVESYLSSSGSTSYQVQEADSLASVQLGATRPTAPASAKRTKAAATAGGQGGAARKEKKGKHKGTSGPAALAEDKSEAQGPVQILTVGQSDHAQDAGETAAGGGERPSGQDLRATMQRKGISSSMSFDEDEEDEEENSSSSSQLNSNTRPSSATSRKSVREAASAPSPTAPEQPVDVEVQDLEEFALRPAPQGITIKCRITRDKKGMDRGMYPTYFLHLDREDGKKVFLLAGRKRKKSKTSNYLISVDPTDLSRGGDSYIGKLRSNLMGTKFTVYDNGVNPQKASSSTLESGTLRQELAAVCYETNVLGFKGPRKMSVIVPGMNMVHERVSIRPRNEHETLLARWQNKNTESIIELQNKTPVWNDDTQSYVLNFHGRVTQASVKNFQIIHGNDPDYIVMQFGRVAEDVFTMDYNYPLCALQAFAIALSSFDSKLACE
percentage of EdU-negative [1, 5]: 24.8 ± 1.5%
percentage of EdU-negative [1, 6]: 29.6 ± 0.96%
percentage of EdU-negative [2, 5]: 4.99 ± 0.76%
percentage of EdU-negative [2, 6]: 7.63 ± 0.81%

MTSSGPGPRFLLLLPLLLPPAASASDRPRGRDPVNPEKLLVITVATAETEGYLRFLRSAEFFNYTVRTLGLGEEWRGGDVARTVGGGQKVRWLKKEMEKYADREDMIIMFVDSYDVILAGSPTELLKKFVQSGSRLLFSAESFCWPEWGLAEQYPEVGTGKRFLNSGGFIGFATTIHQIVRQWKYKDDDDDQLFYTRLYLDPGLREKLSLNLDHKSRIFQNLNGALDEVVLKFDRNRVRIRNVAYDTLPIVVHGNGPTKLQLNYLGNYVPNGWTPEGGCGFCNQDRRTLPGGQPPPRVFLAVFVEQPTPFLPRFLQRLLLLDYPPDRVTLFLHNNEVFHEPHIADSWPQLQDHFSAVKLVGPEEALSPGEARDMAMDLCRQDPECEFYFSLDADAVLTNLQTLRILIEENRKVIAPMLSRHGKLWSNFWGALSPDEYYARSEDYVELVQRKRVGVWNVPYISQAYVIRGDTLRMELPQRDVFSGSDTDPDMAFCKSFRDKGIFLHLSNQHEFGRLLATSRYDTEHLHPDLWQIFDNPVDWKEQYIHENYSRALEGEGIVEQPCPDVYWFPLLSEQMCDELVAEMEHYGQWSGGRHEDSRLAGGYENVPTVDIHMKQVGYEDQWLQLLRTYVGPMTESLFPGYHTKARAVMNFVVRYRPDEQPSLRPHHDSSTFTLNVALNHKGLDYEGGGCRFLRYDCVISSPRKGWALLHPGRLTHYHEGLPTTWGTRYIMVSFVDP
percentage of EdU-negative [1, 7]: 25.1 ± 1%
percentage of EdU-negative [1, 8]: 28.2 ± 1.3%
percentage of EdU-negative [2, 7]: 5.45 ± 1.1%
percentage of EdU-negative [2, 8]: 8.17 ± 1.2%

MTSSLLLAFLLLAPTTVATPRAGGQCPACGGPTLELESQRELLLDLAKRSILDKLHLTQRPTLNRPVSRAALRTALQHLHGVPQGALLEDNREQECEIISFAETGLSTINQTRLDFHFSSDRTAGDREVQQASLMFFVQLPSNTTWTLKVRVLVLGPHNTNLTLATQYLLEVDASGWHQLPLGPEAQAACSQGHLTLELVLEGQVAQSSVILGGAAHRPFVAARVRVGGKHQIHRRGIDCQGGSRMCCRQEFFVDFREIGWHDWIIQPEGYAMNFCIGQCPLHIAGMPGIAASFHTAVLNLLKANTAAGTTGGGSCCVPTARRPLSLLYYDRDSNIVKTDIPDMVVEACGCS
percentage of EdU-negative [1, 9]: 25.8 ± 2.3%
percentage of EdU-negative [1, 10]: 27.7 ± 2.4%
percentage of EdU-negative [2, 9]: 4.58 ± 0.61%
percentage of EdU-negative [2, 10]: 5.17 ± 0.32%

MTSSLQRPWRVPWLPWTILLVSTAAASQNQERLCAFKDPYQQDLGIGESRISHENGTILCSKGSTCYGLWEKSKGDINLVKQGCWSHIGDPQECHYEECVVTTTPPSIQNGTYRFCCCSTDLCNVNFTENFPPPDTTPLSPPHSFNRDETIIIALASVSVLAVLIVALCFGYRMLTGDRKQGLHSMNMMEAAASEPSLDLDNLKLLELIGRGRYGAVYKGSLDERPVAVKVFSFANRQNFINEKNIYRVPLMEHDNIARFIVGDERVTADGRMEYLLVMEYYPNGSLCKYLSLHTSDWVSSCRLAHSVTRGLAYLHTELPRGDHYKPAISHRDLNSRNVLVKNDGTCVISDFGLSMRLTGNRLVRPGEEDNAAISEVGTIRYMAPEVLEGAVNLRDCESALKQVDMYALGLIYWEIFMRCTDLFPGESVPEYQMAFQTEVGNHPTFEDMQVLVSREKQRPKFPEAWKENSLAVRSLKETIEDCWDQDAEARLTAQCAEERMAELMMIWERNKSVSPTVNPMSTAMQNERNLSHNRRVPKIGPYPDYSSSSYIEDSIHHTDSIVKNISSEHSMSSTPLTIGEKNRNSINYERQQAQARIPSPETSVTSLSTNTTTTNTTGLTPSTGMTTISEMPYPDETNLHTTNVAQSIGPTPVCLQLTEEDLETNKLDPKEVDKNLKESSDENLMEHSLKQFSGPDPLSSTSSSLLYPLIKLAVEATGQQDFTQTANGQACLIPDVLPTQIYPLPKQQNLPKRPTSLPLNTKNSTKEPRLKFGSKHKSNLKQVETGVAKMNTINAAEPHVVTVTMNGVAGRNHSVNSHAATTQYANGTVLSGQTTNIVTHRAQEMLQNQFIGEDTRLNINSSPDEHEPLLRREQQAGHDEGVLDRLVDRRERPLEGGRTNSNNNNSNPCSEQDVLAQGVPSTAADPGPSKPRRAQRPNSLDLSATNVLDGSSIQIGESTQDGKSGSGEKIKKRVKTPYSLKRWRPSTWVISTESLDCEVNNNGSNRAVHSKSSTAVYLAEGGTATTMVSKDIGMNCL
percentage of EdU-negative [1, 9]: 26.3 ± 0.7%
percentage of EdU-negative [1, 10]: 24 ± 3.6%
percentage of EdU-negative [2, 9]: 4.72 ± 0.9%
percentage of EdU-negative [2, 10]: 6.26 ± 1.5%
